Columns and labels:
[1] = target: YFP-β3 (UniProt P54287); test: FRET or BRET
[2] = target: YFP-β3 (UniProt P54287 1-484); test: FRET or BRET
Sequence of YFP-β3 (UniProt P54287 1-484) (P54287 whole entry): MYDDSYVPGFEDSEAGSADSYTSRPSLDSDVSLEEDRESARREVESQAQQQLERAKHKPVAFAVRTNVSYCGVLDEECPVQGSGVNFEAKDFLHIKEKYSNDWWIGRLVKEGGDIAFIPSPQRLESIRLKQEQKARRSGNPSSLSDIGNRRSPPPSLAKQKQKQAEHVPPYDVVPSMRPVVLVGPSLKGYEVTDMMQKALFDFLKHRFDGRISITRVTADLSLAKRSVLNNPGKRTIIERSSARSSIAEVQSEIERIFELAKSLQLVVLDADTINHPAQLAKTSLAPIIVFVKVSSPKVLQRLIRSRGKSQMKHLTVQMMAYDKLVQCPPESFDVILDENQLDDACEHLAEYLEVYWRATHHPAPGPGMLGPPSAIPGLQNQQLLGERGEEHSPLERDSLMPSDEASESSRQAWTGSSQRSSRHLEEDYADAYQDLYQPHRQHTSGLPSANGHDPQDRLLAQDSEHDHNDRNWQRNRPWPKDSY

Sequence of YFP-β3 (UniProt P54287) (P54287 whole entry): as above

Molecule “CFP-Rad (from UniProt P55042 1-308) (natural protein)” has an FRET efficiency [1] of 0.123.

Work on “CFP-Rad[R208A/L235A] (from UniProt P55042 1-308) (natural protein)” yielded a fold decrease in affinity compared with CFP-Rad [1] of 8 fold.

B1: CFP-Rem[R200A/L227A] (natural protein, UniProt O35929 1-297, looked up)
chain: MTLNTQQEAKTTLRRRASTPLPLSSRGHQPGRLCTAPSAPSQHPRLGQSVSLNPPVRKPSPAQDGWSSESSDSEGSWEALYRVVLLGDPGVGKTSLASLFAEKQDRDPHEQLGGVYERTLSVDGEDTTLVVMDTWEAEKLDESWCQESCLQAGSAYVIVYSIADRSSFESASELRIQLRRTHQANHVPIILVGNKADLAACREVSVEEGRACAVVFDCKFIETSATAQHNVTELFEGVVRQLRLRRQDNAAPETPSPRRRASLGQRARRFLARLTARSARRRALKARSKSCHNLAVL
With B1 the “fold decrease in affinity compared with WT Rem” value [2] was 5 fold.

— paper PMC6255209 (Proceedings of the National Academy of Sciences of the …, 2018)
